# Laboratory results reported in article PMC10175485, “Detecting recurrent passenger mutations in melanoma by targeted UV damage sequencing”.
# T1: ETS1 DNA-binding domain (Ets-1 ΔN280) (Mus musculus (murine), UniProt P27577 281-440, del1-280)
# T1 sequence: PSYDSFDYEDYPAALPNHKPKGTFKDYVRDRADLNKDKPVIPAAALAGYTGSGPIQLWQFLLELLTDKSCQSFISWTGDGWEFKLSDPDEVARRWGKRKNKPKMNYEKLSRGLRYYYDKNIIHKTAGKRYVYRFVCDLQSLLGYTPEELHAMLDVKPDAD
# B1: STK19 D89 oligonucleotide (STK19-RVS/STK19-FWD) (dsDNA)
# DNA 1: CCTGAAAATAGGGTCTTCCGGCGCAGAGCA
# DNA 2: TGCTCTGCGCCGGAAGACCCTATTTTCAGG
# Target: T1, ETS1 DNA-binding domain (Ets-1 ΔN280)
# Assay: EMSA; not stated in the material (as described previously, ref 25)
# Details: protein: recombinant; tags: C-terminal His6 removed by thrombin; label: 5' 32P on strand 1 (STK19-RVS); 5' biotin on strand 2 (STK19-FWD); blunt
binder,measurement,value
B1,binding result,binds
